Experimental findings from patent US20120207760A1 are described below.

Common to all, as to details: remark: other sources report otherwise
The target of assay [1] is T1, recombinant homotrimeric HA, A/Japan/305/57 H2N2 (Influenza A virus A/Japan/305/57 (H2N2)). Put plainly: trimeric HA microarray, transfection set 4.
Assay [2] concerns the target T2, recombinant homotrimeric HA, A/California/4/09 H1N1 (Influenza A virus A/California/4/09 (H1N1)). In words: trimeric HA microarray, transfection set 4.
Assay [3] concerns the target T3, recombinant homotrimeric HA, A/Wisconsin/67/05 H3N2 (Influenza A virus A/Wisconsin/67/05 (H3N2)). Put plainly: trimeric HA microarray, transfection set 4.
The target of assay [4] is T4, recombinant homotrimeric HA, A/Indonesia/5/05 H5N1 (Influenza A virus A/Indonesia/5/05 (H5N1)). Put plainly: trimeric HA microarray, transfection set 4.
Assay [5] addresses T5, recombinant homotrimeric HA, A/South Carolina/1/18 H1N1 (Influenza A virus A/South Carolina/1/18 (H1N1)). In words: trimeric HA microarray, transfection set 4.
Assay [6] concerns the target T6, recombinant homotrimeric HA, A/Solomon Islands/3/06 H1N1 (Influenza A virus A/Solomon Islands/3/06 (H1N1)). In words: trimeric HA microarray, transfection set 4.
For assay [7], the target named is T7, recombinant homotrimeric HA, A/Vietnam/1203/04 H5N1 (Influenza A virus A/Vietnam/1203/04 (H5N1)). Put plainly: trimeric HA microarray, transfection set 4.
Assay [8] has as its target T1, recombinant homotrimeric HA, …. Put plainly: trimeric HA microarray, transfection set 5.
Assay [9] concerns the target T2, recombinant homotrimeric HA, …. Put plainly: trimeric HA microarray, transfection set 5.
The target of assay [10] is T3, recombinant homotrimeric HA, …. Put plainly: trimeric HA microarray, transfection set 5.
In assay [11] the target is T4, recombinant homotrimeric HA, …. Put plainly: trimeric HA microarray, transfection set 5.
Assay [12] has as its target T8, recombinant homotrimeric HA, A/swine/Ontario/01911-2/99 H4N6 (Influenza A virus A/swine/Ontario/01911-2/99 (H4N6)). In words: trimeric HA microarray, transfection set 5.
The target of assay [13] is T5, recombinant homotrimeric HA, A/South …. Put plainly: trimeric HA microarray, transfection set 5.
Assay [14] deals with T6, recombinant homotrimeric HA, A/Solomon …. In words: trimeric HA microarray, transfection set 5.
Assay [15] addresses T7, recombinant homotrimeric HA, …. In words: trimeric HA microarray, transfection set 5.
The target of assay [16] is recombinant soluble homotrimeric HA of A/northern shoveler/California/HKWF115/07 (Influenza A virus A/northern shoveler/California/HKWF115/2007). Put plainly: microarray, BCC supernatant IgG, trimeric HA.
For assay [17], the target named is recombinant soluble homotrimeric HA of A/chicken/Vietnam/NCVD-016/08 (H5N1) (Influenza A virus A/chicken/Vietnam/NCVD-016/08 (H5N1)). Put plainly: microarray, BCC supernatant IgG, trimeric HA.
In assay [18] the target is T1, recombinant homotrimeric HA, …. Put plainly: trimeric HA microarray, transfection set 2.
The target in assay [19] is T3, recombinant homotrimeric HA, …. Put plainly: trimeric HA microarray, transfection set 2.
Assay [20] deals with recombinant homotrimeric HA, A/Netherlands/219/03 H7N7 (Influenza A virus A/Netherlands/219/03 (H7N7)). Put plainly: trimeric HA microarray, transfection set 2.
Assay [21] concerns the target recombinant homotrimeric HA, A/Hong Kong/1073/99 H9N2 (Influenza A virus A/Hong Kong/1073/99 (H9N2)). In words: trimeric HA microarray, transfection set 2.
Assay [22] concerns the target T8, recombinant homotrimeric HA, …. In words: trimeric HA microarray, transfection set 2.
Assay [23] addresses T5, recombinant homotrimeric HA, A/South …. In words: trimeric HA microarray, transfection set 2.
Assay [24] concerns the target T6, recombinant homotrimeric HA, A/Solomon …. In words: trimeric HA microarray, transfection set 2.

B1: TCN-534 (5249_B02) (antibody, V domains shown)
VH: QVQLVQSGAEVKKPGSSVKVSCRESGGTFNGYTITWVRQAPGQGLEWMGGIIPMMGTVNYAQKLQGRVTITTDYFTKTAYMDLNNLRSEDTAMYYCVKIRYTGQQLLWGQGTLVTVSS
VL: DIQMTQSPSTLSASIGDRVTITCRASQSIASWLAWYQQKPGKAPKLLIYEAVNLESGVPSRFSGSGSGTDFTLTISSLQPDDFATYFCQHYGTISQTFGGGTKVEIK
As for B1, the Trimeric HA Binding RLU in assay [1] was 14700 RLU; in assay [2], 27000 RLU; in assay [3], 897 RLU; in assay [4] it was 948 RLU; in [5], 11800 RLU; in assay [6], 60 RLU. Besides, the Trimeric HA Binding RLU in assay [7] was 23700 RLU.

B2: TCN-553 (5261_C18) (antibody, V domains shown)
VH: QVQVVQSGTEVKKPGSSVKVSCQTSGGRFMSYAITWVRQAPGQGLEWMGGIVPVFGTANYAQKFQGRVTITTDDSTRTAYMELSSLRSEDTAVYYCGFRYGSGYGFDSWGQGTLVTVSS
VL: EIVLTQSPGTLSLSPGERATLSCRASQSVSSSYLAWYQKKPGQAPRLLIYGASTRATGIPDRFTGSGSGTDFTLSISRLEPEDFAVYYCQHFGTSVFTFGGGTKVEIK
As to B2, the Trimeric HA Binding RLU was found to be 39800 RLU in assay [8]; 23300 RLU in assay [9]; 25200 RLU in [10]; 31200 RLU in [11]; 12200 RLU in [12]; 41300 RLU in assay [13]. Also, the Trimeric HA Binding RLU in assay [14] is 49600 RLU; in assay [15], 19200 RLU.

B3: TCN-546 (5089_L08) (antibody, V domains shown)
VH: QVQLQQWGAGLLKPSETLSLTCGVYGGSLSDYYWSWIRQPPGKGLEWIGEINHSGGTNYNPSLKRRVTISVDTSKKQFSLKMNSVTAADTAVYYCARGTDPDTEVYCRAGNCAAFDFWGQGTLVTVSS
VL: EIVLTQSPGTLSLSPGERATLSCRASHFVIGRAVAWYQQKPGQAPRLLIYGASSRATGIPDRFSGSGSGTDFTLTISRLETEDFAVFYCQHYGSSPRYAFGQGTKLEIK
On to B3, for which the Trimeric HA Binding RLU was 1730 RLU in [8]; 1080 RLU in assay [9]; 28500 RLU in assay [10]; 40900 RLU in assay [11]; 955 RLU in assay [13]. In addition, the Trimeric HA Binding: RLU in assay [16] was 1350 RLU.

B4: TCN-548 (5092_P01) (antibody, V domains shown)
VH: QVQLQESGPGLVKPSETLSLTCTVSSGPMSDYYWSWIRQPPGKGLEWIGHVSVSHGGRTKSNPSVMSRVTISVETSKNQFSLKLTSVTAADTAVYYCARLNYYDRSGYHSPDGPSNNWFDPWGQGTLVTVSS
VL: not shown
With B4, the Trimeric HA Binding RLU in assay [8] stood at 1020 RLU; in [9], 818 RLU; in assay [13] it was 1150 RLU; in assay [14] it was 750 RLU. The Trimeric HA Binding: RLU in assay [16] was 314 RLU; in assay [17] it was 254 RLU.

B5: TCN-542 (5079_A16) (antibody, V domains shown)
VH: QVQLQESGPGLVKPSQTLSLTCTVSGGSISSGNYYWNWVRQHPGKGLEWIGYIYYRGSTFYNPSLKSRVTISIDTSKNQFSLRLSSVTAADTAVYYCAKDTRSSLDNYQYGMDVWGQGTTVTVSS
VL: QTVVTQEPSLTVSPGGTVTLTCASSTGAVTSSYFPNWFQQKPGQAPRPLIYSTTIRHSWTPARFSGSLLGGKAALTLSGVQPEDEADYYCLLYSGGDPVAFGGGTKLTVL
As to B5, the results for the Trimeric HA Binding RLU in assay [8], in [12] and in [13] were 5180 RLU, 14300 RLU and 1120 RLU, respectively. In addition, the Trimeric HA Binding: RLU in assay [16] came to 900 RLU.

B6: TCN-557 (5081_A04) (antibody, V domains shown)
VH: QVQLVQSGAEVKKPGASVKVSCKASGHTFTGYYIHWVRQAPGQGLEWMGWINPDSGATSSAQNFQGRVTMTGDTSSSTAYMELSRLSFDDTAVYYCARVLFTSPFDFWGEGTLVTVSS
VL: QAVVTQEPSLAVSPGGTVTLTCGSSTGAVTRGHYPYWFQQKPGQAPRALIYDSAGNRHSWTPARFSGSLLGGKAALTLSGAQPEDEAEYYCLLSYSGVWVFGGGTKLTVL
In the case of B6, the Trimeric HA Binding RLU in assay [8] amounted to 27300 RLU; in assay [9], 44400 RLU; in assay [10], 46100 RLU; in assay [11], 22200 RLU; in [12], 41500 RLU; in assay [13] it was 44900 RLU. The Trimeric HA Binding RLU in assay [14] is 27000 RLU; in [15] it was 21300 RLU.

B7: TCN-552 (5249_I23) (antibody, V domains shown)
VH: QVQVVQSGAEVKKPGSSVRVSCQASGGTFMNYAIIWVRRAPGQGLEWMGGIIPVFPTPNYAQMFQGRVTISTDESRSTSFLELTNLRYEDTAVYYCARRIYHGGNSGFDFWGQGTLVTVSS
VL: EIVLTQSPATLSLSPGERATLSCRASQSVGNYLAWYQQKPGQAPRLLIYDSSNRAPGIPARFSGSGSGTDFTLTISSLAPEDFAVYYCQQRSKWPPMYSFGHGTKLEIK
With B7, the Trimeric HA Binding RLU in assay [8] was 52000 RLU; in assay [9] it was 23500 RLU; in [10], 18500 RLU; in [11], 43400 RLU; in assay [12] it was 9080 RLU; in [13], 37400 RLU. Besides, the values for the Trimeric HA Binding RLU in assay [14] and in [15] were 48600 RLU and 18500 RLU, respectively.

B8: TCN-526 (5084_C17) (antibody, V domains shown)
VH: EVLMVESGGGLVQPGGSVRLSCVASGFSFSSHWMTWVRQAPGKGLEWVANIEDDGGDKYYVDSVKGRFIISRDNAKNSVYLQMNSLRAEDTAVYFCARGSGSSDRSDYDPHYYYYLDVWGKGATVTVSS
VL: DIQLTQSPSSLSASVGDRVTITCRASQSISRYLNWYQQKPGKAPKLLLFAASTLLDGVPSRFSGSGSGTDFTLTISSLQPEDFATYYCQRNHSPSWTFGQGTRVEIK
In the case of B8, the Trimeric HA Binding RLU was determined as 3590 RLU in assay [18]; 27800 RLU in assay [19]; 5660 RLU in [20]; 490 RLU in assay [21]; 3490 RLU in assay [22]; 2310 RLU in [23]. For the same molecule, the Trimeric HA Binding RLU in [24] turned out to be 1470 RLU.
